Laboratory results as given in patent US20210155689A1 (SHANGHAI PHARMAEXPLORER, published 2021).
Numbering of substitutions follows the chain as printed.

T1: human LAG-3 on cells (HEK293-hLAG-3 stable cell line) (human, UniProt P18627 23-525)
T1 sequence: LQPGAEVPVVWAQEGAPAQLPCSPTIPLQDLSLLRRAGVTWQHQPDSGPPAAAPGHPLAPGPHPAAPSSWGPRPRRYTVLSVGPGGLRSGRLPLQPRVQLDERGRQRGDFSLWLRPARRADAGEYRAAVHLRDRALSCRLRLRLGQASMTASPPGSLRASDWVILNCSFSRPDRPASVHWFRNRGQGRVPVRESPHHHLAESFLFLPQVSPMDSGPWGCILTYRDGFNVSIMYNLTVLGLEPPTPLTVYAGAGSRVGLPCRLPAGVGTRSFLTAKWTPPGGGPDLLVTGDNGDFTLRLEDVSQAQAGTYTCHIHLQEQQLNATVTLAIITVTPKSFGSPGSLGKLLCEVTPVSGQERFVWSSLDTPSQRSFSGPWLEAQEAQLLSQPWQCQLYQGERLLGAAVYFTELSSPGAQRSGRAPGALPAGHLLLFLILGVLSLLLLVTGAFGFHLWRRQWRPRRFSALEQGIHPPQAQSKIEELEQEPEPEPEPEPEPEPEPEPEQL

T2: human LAG-3 protein with hFc tag (hLAG-3-hFc protein) (human, UniProt P18627 23-450)
T2 construct: also called immunogen 1; LAG-3 extracellular domain protein; not shown: human IgG Fc fragment (hFc) of the pCpC vector
T2 sequence: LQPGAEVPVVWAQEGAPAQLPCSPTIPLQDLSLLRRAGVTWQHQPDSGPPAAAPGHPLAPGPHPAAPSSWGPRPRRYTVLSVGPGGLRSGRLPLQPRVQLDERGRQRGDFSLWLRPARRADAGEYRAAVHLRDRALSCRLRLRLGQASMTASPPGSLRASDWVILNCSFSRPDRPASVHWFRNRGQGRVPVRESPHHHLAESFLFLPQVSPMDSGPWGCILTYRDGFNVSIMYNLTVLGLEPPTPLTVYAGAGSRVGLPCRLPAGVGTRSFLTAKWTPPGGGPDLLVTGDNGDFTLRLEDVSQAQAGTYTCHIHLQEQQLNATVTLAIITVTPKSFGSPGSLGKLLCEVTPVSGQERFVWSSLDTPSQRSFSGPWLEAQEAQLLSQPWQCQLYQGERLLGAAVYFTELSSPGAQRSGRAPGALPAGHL

B1: 556F6B8 mouse-human chimeric antibody (antibody, V domains shown)
VH: RVQLKQSGPGLVQPSQSLSITCTVSGFSLIKYGVHWVRQSPGEGLEWLGVIWRGGITDYNAAFMSRLSITKDNSKSQVFFKMNSLQADDTAIYYCAKWDGPLAMDYWGQGTSVTVSS
VL: DIVMTQSHKFLSTSVGDRVSITCKASQDVGTTVAWYQQKPGQSPKLLIYWASTRHTGVPDRFTGSGSGTDFTLTISNVQSEDLADYFCQQYSSYPYTFGGGTKLEIK
notes: also called mAb123-556F6B8; 556F8B8
B2: 556F6B8 (mouse antibody purified from hybridoma) (antibody, V domains shown)
VH: B1 VH
VL: B1 VL
notes: also called mAb123-556F6B8
B3: 556F6B8 (LAG-3 mouse-human chimeric antibody) (antibody, V domains shown)
VH: B1 VH
VL: B1 VL
notes: also called 556F8B8
B4: 405B8H3 (mouse antibody purified from hybridoma) (antibody, V domains shown)
VH: QVQLQQSGAELVRPGASVTLSCKASGYTFTDYEMHWVKQTPVHGLEWIGATDPETGNSAYNQKFKGKAIMTADKSSSTAYMELRSLTSEDSAVYYCISTGWNDWGQGTSLTVSS
VL: DIKMTQSPSSMYASLGERVTITCKASQDINSYLSWFQQKPGKSPKTLIYRADRLLDGVPSRFSGSGSGQDYSLTISSLEYGDMGIYYCLQYDEFPYTFGGGTKLEIK
notes: also called mAb103-405B8H3; 405B81-13
B5: 105F1E10 mouse-human chimeric antibody (antibody, V domains shown)
VH: EVQLQQSGPELVKPGASVKMSCRASGYTFTDFKMHWMKQSHGKSLEWIGYIAPNNGGTAYNQKFRGKATLTVNESSNTAYMELRSLTSEDSAVYYCVDWDDVDYWGQGTTLTVSS
VL: B4 VL with P40S, D52N, L55V, G81E, D92V, Y96L, G100A, I106L
notes: also called mAb009-105F1E10
B6: 405B8H3 mouse-human chimeric antibody (antibody, V domains shown)
VH: B4 VH
VL: B4 VL
notes: also called mAb103-405B8H3
B7: 405B8H3 (LAG-3 mouse-human chimeric antibody) (antibody, V domains shown)
VH: B4 VH
VL: B4 VL
notes: also called mouse-human chimeric antibody 405B8H3
B8: 105F1E10 (LAG-3 mouse-human chimeric antibody) (antibody, V domains shown)
VH: B5 VH
VL: B4 VL with P40S, D52N, L55V, G81E, D92V, Y96L, G100A, I106L
B9: 105F1E10 (mouse antibody purified from hybridoma) (antibody, V domains shown)
VH: B5 VH
VL: B4 VL with P40S, D52N, L55V, G81E, D92V, Y96L, G100A, I106L
notes: also called mAb009-105F1E10
B10: 409B11E12 (mouse antibody purified from hybridoma) (antibody, V domains shown)
VH: B4 VH with P41T, G56S, N57Y, M70L, S98A
VL: B4 VL with I2L, D52N, G81E
notes: also called mAb104-409B11E12
B11: 409B11E12 mouse-human chimeric antibody (antibody, V domains shown)
VH: B4 VH with P41T, G56S, N57Y, M70L, S98A
VL: B4 VL with I2L, D52N, G81E
notes: also called mAb104-409B11E12
B12: 409D4E10 (LAG-3 mouse-human chimeric antibody) (antibody, V domains shown)
VH: B4 VH with Y27N, G56D, S58T, M70L, A72T, S98T, T99S
VL: B4 VL with D52N, G81E, D92N
B13: 409D4E10 (mouse antibody purified from hybridoma) (antibody, V domains shown)
VH: B4 VH with Y27N, G56D, S58T, M70L, A72T, S98T, T99S
VL: B4 VL with D52N, G81E, D92N
notes: also called mAb112-409D4E10
B14: 409B11E12 (LAG-3 mouse-human chimeric antibody) (antibody, V domains shown)
VH: B4 VH with P41T, G56S, N57Y, M70L, S98A
VL: B4 VL with I2L, D52N, G81E
B15: 409D4E10 mouse-human chimeric antibody (antibody, V domains shown)
VH: B4 VH with Y27N, G56D, S58T, M70L, A72T, S98T, T99S
VL: B4 VL with D52N, G81E, D92N
notes: also called mAb112-409D4E10

Legend:
[1] = molecular target: T1, human LAG-3 on cells (HEK293-hLAG-3 …); experiment: FACS, HEK293-hLAG-3, antibody 0.013 nM
Text: The pIRES plasmid with the monkey-derived full-length gene was transfected into the HEK293 cell line to construct a HEK293 stable cell line containing monkey LAG-3 (herein referred to as HEK293-cLAG-3 stable cell line). The HEK293-hLAG-3 stable cell line and HEK293-cLAG-3 stable cell line were expanded in a T-75 cell culture flask to a 90% confluence. The medium was aspirated, and the cells were washed with HBSS (Hanks' Balanced Salt Solution) 1-2 times, then treated with a enzyme-free cell dissociation fluid (Versene solution: Life technology) and the cells were collected. The cells were washed with HBSS buffer for 1-2 times. After counted, the cells were diluted with HBSS to 1-2×10⁶ cells per ml, added with 1% goat serum blocking solution, incubated on ice for 20-30 minutes, and then washed with HBSS for 2 times by centrifugation. The collected cells were suspended in the FACS buffer (HBSS+1% BSA) to 2×10⁶ cells/ml, added as 100 microliters per well to a 96-well FACS reaction plate, added with 100 microliters per well of the antibody sample to be tested, incubated on ice for 1-2 hours. The plate was washed twice with the FACS buffer by centrifugation, added with 100 microliters of fluorescent (Alexa 488)-labeled secondary antibodies per well, and incubated on ice for 0.5-1.0 hours. The plate was washed 2-3 times with FACS buffer by centrifugation, added with 100 μl fixative solution (4% Paraformaldehyde) per well to suspend the cells. 5-10 minutes later, it was washed 1-2 times with FACS buffer by centrifugation. The cells were suspended with 100 microliters of FACS buffer, FACS (FACSCalibur, BD) was used for detection and the results were analyzed.

[2] = molecular target: T2, human LAG-3 protein with hFc tag …; experiment: FACS, blocks LAG-3-hFc binding to MHC II on Raji; 0.000 nM
Experimental: The FACS reaction plate incubating the Raji cells was centrifuged to discard the supernatant. The above mixture was added as 100 μl per well to Raji cells and incubated on ice for 1-2 hours. The plate was washed twice with blocking solution (PBS, 2% fetal bovine serum) by centrifugation, added with 100 microliters of fluorescent (Alexa 488)-labeled secondary antibodies per well, and incubated on ice for 1.0 hours. The plate was washed 2-3 times by centrifugation with blocking solution (PBS, 2% fetal bovine serum), added with 100 microliters of PBS per well to suspend cells, and detected using FACS (FACS Calibur, BD) and the results were analyzed. Wherein, the IgG control was murine IgG, and the data in the table is the inhibition rate (%).

[3] = molecular target: T2, human LAG-3 protein with hFc tag …; experiment: ELISA, hLAG-3-hFc coated; 0.6667 nM
Experimental: The plate was sealed with plastic film and incubated overnight at 4° C. The plate was washed 2 times with the plate washing solution (PBS+0.01% Tween20) on the next day, and added with the blocking solution (PBS+0.01% Tween20+1% BSA) and blocked at room temperature for 1-2 hours. The blocking solution was poured out, and the plate was added with 50-100 μl of the antibody sample to be tested to each well, incubated at 37° C. for 1-2 hours, and washed 2-3 times with a plate washing solution (PBS+0.01% Tween20). HRP (horseradish peroxidase) labeled secondary antibody was added, and the plate was incubated at 37° C. for 1-2 hours, and washed 2-3 times with a plate washing solution (PBS+0.01% Tween20). 100 μl of TMB substrate was added to each well. After incubated at room temperature for 15-30 minutes, the plate was added with 100 μl of stop solution (1.0N HCl) to each well.

Binder	Mean fluorescence intensity [1]	Inhibition rate (%) [2]	OD450 [3]
B1	4.2		
B2		-10.7%	
B3			3.76 OD450
B4		0.3%	
B5	3.6		
B6	4		
B7			3.51 OD450
B8			3.46 OD450
B9		-14%	
B10		-21.2%	
B11	4.1		
B12			3.76 OD450
B13		-21.4%	
B14			3.55 OD450
B15	4		
